Laboratory results published in the nanobody polyreactivity screen of Harvey et al. (2022).

Experiment: yeast display, Sf9 membrane polyspecificity reagent, FACS + sequencing; frameworks hold sequencing errors
Method in brief: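 Galactose induction of a Saccharomyces cerevisiae BJ5465 synthetic nanobody display library ran 36–48 hours. The cells were then stained for 1 hour at 4 °C with 10% biotinylated, detergent-solubilized Sf9 membrane reagent, pulled down on streptavidin microbeads and FACS-sorted into low and high (top ~1%) gates on expression and reagent-binding fluorescence. Labels for polyreactivity follow the gate of origin.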

QVQLVESGGGLVQAGGSLRLSCAASGSTYGIYAMGWYRQAPGKERELVAAISSGGSTNYADSVKGRFTISRDNAKNTVYLQMNSLKPEDTAVYYCAVESVYEYGGYVDSAYDYWGQGTQVTVSS
polyreactivity (PSR sort gate): low polyreactivity

QVQLVESGGGLVQAGGSLRLSCAASGFTFTWYAMGWYRQAPGKERELVASISRSGGSTYYADSVKGRFTISRDNAKNTVYLQMNSLKPEDTAVYYCAAEIWLEYVGYDYWGQGTQVTVSS
polyreactivity (PSR sort gate): high polyreactivity

QVQLVESGGGLVQAGGSLRLSCAASGRIFRWYAMGWYRQAPGKERELVASISRGGSTYYADSVKGRFTISRDNAKNTVYLQMNSLKPEDTAVYYCNVKYKYDRAYGEYDYWGQGTQVTVSS
polyreactivity (PSR sort gate): high polyreactivity

QVQLVESGGGLVQAGGSLRLSCAASGLIFPYYAMGWYRQAPGKERELVAAISYRGSRTYYADSVKGRFTISRDNAKNTVYLQMNSLKPEDTAVYYCIAGVSGRDNYWGQGTQVNVSS
polyreactivity (PSR sort gate): high polyreactivity

QDQLVESGGGLVQAGGSLRLSCAASGILDRYAMGWYRQAHGKERELFAAISYIAGSTYYADSVKGRFTISRDNAKNTVYLQLNSLKPEVTAVYYCAARGFGTVNGKLYGYWGQGTQVTVSS
polyreactivity (PSR sort gate): high polyreactivity

QVQLVESGGGLVQAGGSLRLSCAASGSIFYRNAMGWYRQAPGKERELVAAITRSDGRTYYADSVKGRFTISRDNAKNTVYLQMNSLKPEDTAVYYCNADHPFPQYEGGSWGQGTQVTVSS
polyreactivity (PSR sort gate): low polyreactivity

QVQLVESGGGLVQAGGSLRLSCAASGRIFYYYAMGWYRQAPGKERELVATISGIGGSTYYADSVKGRFTISRDNAKNTVYLQMNSLKPEDTAVYFCTADYPTSYPLFKSGFDYWGQGTQVTVSS
polyreactivity (PSR sort gate): low polyreactivity

QDQLVESGGGLVQAGGSLRLSCAASGIIFDYYAMGWYRQAPGKERELVASISWSGGGTYYADSVKGRFTISRDNAKNTVYLQMNSLKAEDTAVYYCAADGSTVNAPRWSDPYDYWGQGTQVTVSS
polyreactivity (PSR sort gate): low polyreactivity

QFQLVESGGGLVQAGGSLRLSCAASGRIFVYNDMVWYRQAPGKEREFVATITSSGGRTYYADSVKGRFTISRDNAKNTVYLQMNRLKPEDTAVYYCNKVGYSNLLGYDYWGQGTQVTVSS
polyreactivity (PSR sort gate): high polyreactivity

QVQIVESGGGIVQAGVSLRLICAASGFTFIDNTMGWYRQAPGKERELVAAISSDGRTNYADSVKGRFTISRDNAKNNVYLQKNSLKPEYTAVYYCASEDYYWYVTGDLYHTAVYYWGQGTQVTVSS
polyreactivity (PSR sort gate): low polyreactivity

QVQLVESGGGLVQAGGSLRLSCAASGFTFGYYTMGWYRQAPGKERELVAAISSSGGRTYYADSVKGRFTISRDNAKNTVYLQMNSLKPEDTAVYYCAARARWAGLRYTRYYYWGQGTQVTVSS
polyreactivity (PSR sort gate): high polyreactivity

QVQLVESGGGLVQAGGSLRLSCAASGRIFSYYAMGWYRQAPGKERELVAAISRGGTTNYADSVKGRFTISRDNAKNTVYLQMNSLKPEDTAVYYCNRDFHLIHLSSARLDYWGQGTQVTVSS
polyreactivity (PSR sort gate): low polyreactivity

QVQLVESGGGLVQAGGSLRISCAASGRTFYTYDMGWYRQAPGKERQLVAAISSSGSTYYADSVKGRFTISRDNAKNTVYLQMNSLKPEDTAGYYCNARTSRYRRGGDSWGQGTQVTVSS
polyreactivity (PSR sort gate): high polyreactivity

QVQLVESGGCLVQAGGSLRLSCAASGSIFDGNTMGWYRQAPGKERELVAAITWSGGSTYYADSVKGRFTISRDNAKNTVYLQMNSLKPEDTAVYYCAAEYWDSDPYDYWGQGTQVTVSS
polyreactivity (PSR sort gate): low polyreactivity

QVQLVESGGGLVQAGGSLRLSCAASGSIFPSYAIGWYRQAPGKERELVATIGRGGTTNYADSVKGRFTISRDNAKNTVYLQMNSLKPEDTSVYYCNAERIWRYKYGYDYWGQGTQVTVSS
polyreactivity (PSR sort gate): high polyreactivity

QVQLVESGGGLVQAGGSLRLSCAASGFTFNYYAMGWYRQAPGKERELVAAITWRSGRTSYADSVKGRFTISRDNAKNTVYLQMNSLKPEDTAVYYCAKYTIYYGLTRYGYWGQGTQVTVSS
polyreactivity (PSR sort gate): high polyreactivity

QVQLVESGGGLVQAGGSLRLICASSGLNFVVYAMGRSRPAPGKERELVAAISSGGGSTYYADSVKGRFTISRDNAKNSVYLQMNSQKPEDTEVYYCNAVDKLYYWRYDYWRQGTQVTVSS
polyreactivity (PSR sort gate): low polyreactivity

QVQLVESGGGLVQAGGSLRLSCAASGSIFLTYAMGWYRQAPGKERELVAAITDSDGSTSYADSVKGRFTISRDNAKNTVYLQMNSLKPEDTAVYYCAKDFPGRRPPKDPSAFYYWGQGTQVTVSS
polyreactivity (PSR sort gate): low polyreactivity

QVQLVESGGGLVQAGGSLRLSCAASGSTLDVYDMGWYRQAPGKEREFVATISFSVGSTDYADSVKGRFTISRDNAKNTVYLQMNSLKPEDTAVYYCAADVSEWSNQYFDSYLRMDYWGQGTQVTVSS
polyreactivity (PSR sort gate): low polyreactivity

QVQLVESGGGLVQAGGSLRLICAASGSIFYANAMGWYRQAPGKEREFVAANSSSGGGTSYADSVKGRFTISRDNAKNTVYLQMNSLKPEDTAVYYCAARVTYGGIPARQIYDYWGQGTQVTVSS
polyreactivity (PSR sort gate): low polyreactivity

QVQLVESGGGLVQAGGSLRLSCAASGITFYKNAMGWYRQAPGKERELVAAISSGGGTTYADSVKGRFTISRDNAKNTVYLQMNSLKPEDTAVYYCAADRRYYWYNYWGLGTQVTVSS
polyreactivity (PSR sort gate): high polyreactivity

QVQLVESGGGLVQAGGSLRLTSAASGFTFPYTDMGWYRPAPGKERELVADISSGGSTYYADSVKGRFTISRDNAKINVYLQMISLKPEDTAVYYCAAREAYSIRIYQGFGYWGQGTQVTVSS
polyreactivity (PSR sort gate): low polyreactivity

QVQLVESGGGLVQAGGSLRLSCAASGSTFYNYAMGWYRQAPGKERELVAAITSSGGSTYYADSVKGRFTISRDNAKNTVYLQMNSLKPEDTAVYYCAATRRVRRKSFTYRYDYWGQGTQVTVSS
polyreactivity (PSR sort gate): high polyreactivity

QVQLVESGGGLVQAGGSLRLSCAASGLTFYPYAMGWYRQAPGKERELVAAINWSGTTTYYADSVKGRFTISRDNAKNTVYLQMNSLKPEDTAVYYCAAHYTTFIPSPDGDYLGQGTQVTVSS
polyreactivity (PSR sort gate): low polyreactivity

QVQLQESGCGLVQAGGSLRLSCAASGSISAVGAMGWYRQAPGKEREFAASVNWGTNTNYADSVKGRFTISRDNAKNTLYLLMNSLTPEDTAVYYCAVLPDWETRHDYWGHGTQVTVSS
polyreactivity (PSR sort gate): low polyreactivity

QIQLVESGGGLVQAGGSLRLSCAASGRIFFRNAMGWYRQAPGKERELVAGITWSGGSTYYADSVKGRFTISRDNAKNTVYLQMNSLKPEDTAVYYCNAVWRYRVLCDYWGQGTQVTVSS
polyreactivity (PSR sort gate): high polyreactivity

QVQLVESGGGLVQAGGSLRLSCAASGSIFPSYARGWYRQAPGKERELVAAINWDGGSTFYADSVKGRFTISRDNAKNTVSLQMNSLKPEDTAVYYCAAPDNYGGVGGITFWRMDYWGQGTQVTVSS
polyreactivity (PSR sort gate): low polyreactivity

QVQLVESGGGLVQAGGSLRLSCAASGSTIYRYAMGGYRQAPGKERELVAAITWSGGSTYYADSVKGRFTISRDNAKNTVYLQMNSLKPADTAVYYCNAVARYYYKDQTIIHSPREDYWGQGTQVTVSS
polyreactivity (PSR sort gate): low polyreactivity

QVQLVESGGGLVQAGGSLRLSCAASGSIFYSNAMGWSRPAPGKEWELVAGITWTGGSTYYADSVKGRFTISRDNAKNTVYLQMNSLKPEYTEVYYCADRVYYRTVLGGYYYWGQGTQVTVSS
polyreactivity (PSR sort gate): low polyreactivity

QVQLVESGGGLVQAGGSLRLSCAASGSIFLRYAMGWYRQAPGKERELVAAITSSGGSTYYADSVKGRFTISRDNAKNTLYLQMNSLKPEDTAVYYCNRYSYLFPYYWKYDYWGQGTQVTVSS
polyreactivity (PSR sort gate): high polyreactivity

QVQLVESGGGLVQAGGSLRLSCAASGRTFSNYAMGWYRQAPGKERELVAAISQRGGSTYYADSVKGRFTISRDNAKNTVYLQMNSLKPEDTAVYYCNARQTTATVGTGNYWGQGTQVTVSS
polyreactivity (PSR sort gate): high polyreactivity
